Test results published in patent publication US20240285749A1.

Molecular target: HA ectodomain trimer (UniProt Q289M7)
Test: Octet

Substance | Kd (Fab) [nM] | Kd (scFv) [nM]
CR6261 | 0.39 | –
F10 | – | 0.063
